These results are taken from US20020146846A1 (published 2002).

Assay [1] has as its target T1, human epithelial glycoprotein-2, recombinant soluble protein (M1-F259) with a six-histidine C-terminal tag (human, UniProt P16422 24-259).
T1 construct: range 1-259; The stated range M1-F259 starts at the initiator methionine; also called recombinant soluble EGP-2-antigen; immobilized EGP-2
T1 sequence: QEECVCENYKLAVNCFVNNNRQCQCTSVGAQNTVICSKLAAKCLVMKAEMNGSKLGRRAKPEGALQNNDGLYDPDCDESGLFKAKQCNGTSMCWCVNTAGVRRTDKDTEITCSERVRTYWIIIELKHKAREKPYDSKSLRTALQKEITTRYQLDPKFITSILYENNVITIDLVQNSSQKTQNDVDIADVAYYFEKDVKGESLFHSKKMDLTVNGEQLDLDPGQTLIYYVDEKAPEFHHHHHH
The experiment in a line: SPR (BIAcore), EGP-2 amine-coupled to CM-5 chip, scFv injected, 20 C. On the technique in general: SPR reads the build-up and loss of mass on a sensor chip optically.

In assay [2] the target is T2, epithelial glycoprotein-2 (EGP-2) on EGP-2 overexpressing SW2 cells (human, UniProt P16422 24-314).
T2 construct: whole, on cells; Endogenous antigen of the human SW2 cell line; also called GA733-2; Ep-CAM
T2 sequence (looked up): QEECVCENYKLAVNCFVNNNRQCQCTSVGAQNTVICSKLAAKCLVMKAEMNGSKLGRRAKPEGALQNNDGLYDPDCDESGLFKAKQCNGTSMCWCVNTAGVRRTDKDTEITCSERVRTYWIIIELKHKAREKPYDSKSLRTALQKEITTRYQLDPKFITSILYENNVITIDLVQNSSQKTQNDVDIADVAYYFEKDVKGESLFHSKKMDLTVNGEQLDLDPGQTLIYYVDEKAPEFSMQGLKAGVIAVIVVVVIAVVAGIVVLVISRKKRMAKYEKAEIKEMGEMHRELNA
Nature of the assay: RIA of 99mTc-labelled scFv on SW2 cells, 4 C.

Assay [3] concerns the target T1, human epithelial glycoprotein-2, …. The experiment in a line: SPR (BIAcore), immobilized EGP-2, low density coating and high flow rate.

B1: anti-EGP-2 scFv fragment 4D5MOC-B (scFv)
chain: DIQMTQSPSSLSASVGDRVTITCRSTKSLLHSNGITYLYWYQQKPGKAPKLLIYQMSNLASGVPSRFSSSGSGTDFTLTISSLQPEDFATYYCAQNLEIPRTFGQGTKVELKRTPSHNSHQVPSAGGPTANSGTSGSEVQLVQSGPGLVQPGGSVRISCAASGYTFTNYGMNWVKQAPGKGLEWMGWINTYTGESTYADSFKGRFTFSLDTSASAAYLQINSLRAEDTAVYYCARFAIKGDYWGQGTLLTVSS
For orientation: Kd means a measure of binding affinity in units of concentration. As a reminder, the koff is the first-order rate constant of dissociation. Broadly, the kon is the second-order rate constant of association. Turning to B1, in assay [1], the Kd is 3.9 nM, the koff was determined as 0.000717 s⁻¹ and the kon turned out to be 184000 M⁻¹ s⁻¹. The Kd in assay [2] stood at 3.7 nM.

B2: anti-EGP-2 scFv fragment obtained from the murine hybridoma MOC31 (scFv)
chain: DIVMTQSAFSNPVTLGTSASISCRSTKSLLHSNGITYLYWYLQKPGQSPQLLIYQMSNLASGVPDRFSSSGSGTDFTLRISRVEAEDVGVYYCAQNLEIPRTFGGGTKLEIKRTPSHNSHQVPSAGGPTANSGTSGSQVQLQQSGPELKKPGETVKISCKASGYTFTNYGMNWVKQAPGRGLKWMGWINTYTGESTYADDFKGRFAFSLETSASAAYLQINNLKNEDTATYFCARFAIKGDYWGQGTTLTVSS
B2: the “half-life of binding on its target” value in assay [3] is about 38 min. Also, in assay [1], the Kd is 3 nM, the dissociation rate constant (koff) stood at 0.0003 s⁻¹ and the kon came to 99000 M⁻¹ s⁻¹. The same molecule registered a Kd in assay [2] of 10.8 nM.
